From the DeepSol protein solubility set

experiment: soluble on expression in E. coli; label from the status in PepcDB or PDB records

Question: For “MKTIKDWQINICLATYNGQKYLRQQLDSIIQQGYTDWICLIRDDGSTDDTVAIIKEYVNRDSRFIFINSNDDRKLGSHRSFYELVNYKKADFYVFSDQDDVWKENRLERYLEEAEKFNQELPLLVYSNWTSVDEKLTVLKEHNPATVIQEQIAFNQINGMVIMMNHELAKLWEYRQIGAHDSYVGTLAYAVGNVAYISDSTVLWRRQVGAESLNNYGRQYGVATFWQMINTSFDRASLIFAQVSDKMSLERKLFFSRFIELKNANLMRRIYLLSKLKLRRKSLKETVAMTILLLTGYGKPKALEHHHHHH”, which “soluble on expression in E. coli” value is on record?
Answer: soluble

Question: For “EMVLLPAPQIPLIMKIMKNHTPTWLPGVPTLYEKIVAEATAKGVEIKGIRNSFSGASTLPVRTVEDWENLTGGLLVEGYGLTETSPVLCGNPMNGNRRPGYIGVPFPDTEIRIANPDNLDETMPDGEAGEVLARGPQIFQGYLNKPEATAATFHGDWFRTGDMGVMEEDGFIRLVSRIKEIIITGGFNVYPAEVEEALIAHPDVDDAAVVGRPRKDGSEDVVACIVLKDGAALDPEGLKTHCRKLLTRYKVPRTFYHFEALNKDQLGKVRRREVQQTLLERLGEK”, which “soluble on expression in E. coli” value is on record?
Answer: not soluble

Question: For “MGSDKIHHHHHHMEASFDIALASAYVNAHMYSQGLHVSRVAAKDSDFQGVSEKRYEIKDPKEMSRLIKKIGALFGSPLVRIVKLNPEWSYEHAPGDGRGYKYGEPVDIPEHWQYGIIMGIPLSWETREGAPSFFHTFEGYGNASMHCARMAEFVKKLGYPARENSPHARYEYIMPPHMVAAGIGEQGRLGVVVTPEFGPNFRPSMVVTNMPLEPDKPIDVGIRKFCMNCKICADQCPSGSISFDGPKEINGRGYDGWQINASTCHNFWMSVPNGGCRVCLAVCPFSKESNWLHTTARDIAVRERTGITASTLTWMEKAFYGVNTPEHYHYKEGTRQFDYLVGEKPWFFESKDFLKEN”, which “soluble on expression in E. coli” value is on record?
Answer: not soluble

Question: For “MQPASAKWYDRRDYVFIEFCVEDSKDVNVNFEKSKLTFSCLGGSDNFKHLNEIDLFHCIDPNDSKHKRTDRSILCCLRKGESGQSWPRLTKERAKLNWLSVDFNNWKDWEDDSDEDMSNFDRFSEMMNNMGGDEDVDLPEVDGADDDSQDSDDEKMPDLE”, which “soluble on expression in E. coli” value is on record?
Answer: not soluble

Question: For “MNTMKNVTKRSFQTIAIVGKPRHDNALETHLAVYNWLKDRHYSVLVEEKIAEQLQLPNGKRIEEIGQIADLVIVIGGDGNMLGMARSLAKYQVPLIGINRGNLGFLTDIAPQSAFEQLYSCLEKGEFIIEQRFLLEAQIEQNGKIISANNALNEVAIHPTQVARIIEFEVYIDSKFAFSQRSDGLIIATPTGSTAYSLSAGGPILTPNMNAIALVPMHPHALSSRPLVIDGDSHISLRFAQYNQPNLEISCDGQDDLPFTPEDRIIVRKSPDILHLLHLKDYNYFTVLGSKLGWSSKLF”, which “soluble on expression in E. coli” value is on record?
Answer: soluble

Question: Which “soluble on expression in E. coli” value does the source give for “MVFFSVVVPTYNRRPILEKCLRALEQQQISAETAIAGYEVVVVDDGSTDGTVDWLKAQASEFPHVRLFEQDHQGPARARNLGVQQAQGDTIIFIDSDLVVTPPFLQAHATGLEKGRQRLGSDRCFTYGAVINTCNFDNPTAEPFKVTDFSNAYFATGNVAIARHWLETAGLFDTAFQLYGWEDLELGVRLKNLGLKLIRCPEAVGYHWHPPFSLEQIPKLIDQESQRGRMGVLFYQKHPTWEVRLMIQMTWLHRLLWGTLSLGGFLNERTLRPLLAWLLKRDRPQLALEIARIFLNWNNVRSVYAAYRESQGLASSLEHHHHHH” here?
Answer: soluble

Question: With “MQALTTYKCIEKGIVVWLTGLPGSGKTTIATRLADLLQKEGYRVEVLDGDWARTTVSEGAGFTREERLRHLKRIAWIARLLARNGVIVICSFVSPYKQARNMVRRIVEEEGIPFLEIYVKASLEEVIRRDPKGLYKKALKGELENFTGITDPYEPPENPQLVLDTESNTIEHNVSYLYSLVKAVIE” as the sequence, how does the “soluble on expression in E. coli” value read?
Answer: soluble

Question: With “GPGSMSDVKSKEAGANPAASKSGSGEDVAETKLAVPRSLDTGSKKHPLNSSWTLWYDSLSTYDSERWELSLVEVITVRTVEEFFTMLHYCKPPHVLRVSAQYHFFREGVKPMWEDPSNKAGGKLWISLDDKPVGDVGGRKWENANTGGAAGGEKDNASAATNNSNSNQNAKAKKEEQETEKKPELDTMWENLLMAMVGEYLDPEPDGDHIMGLVLSRRKYHNRIALWLRDASASEAVARIEKKLVKEAGLPPAMKFIFTPHSTGK” as the sequence, how does the “soluble on expression in E. coli” value read?
Answer: soluble

Question: Which “soluble on expression in E. coli” value does the source give for “MNEAEQELYEALVAICQTSGFLLLEELPTDLPDQPFVYLGDSKELPKPTKSAILGEIELIMHVYGALSERQQISTIKGTILRQATSNLKRTAHFNWGIKHQEVKAQMVKDTKQMKKTIWHAVLPLHMQFY” here?
Answer: not soluble

Question: For “MGSDKIHHHHHHMINDHQYVADLHIHLGQTASNRPVKITAARTLTLENIIDYARTVKGIDIIGVIDCHVPEVLEGLKHSIESGEAYELKGGGIRFPDVTLILGTEIEVYDEESLGPVHVLAYTPTWNAMMELSSWMGSRMKNPTLSSQRLYETSIVLQQKVKELGGLFIPAHAFTPFKGVYGKGVKQSMGEIFDLALIDGIELGLSADTSMADQVEELHRFPFLSNSDAHSLEKLAREYQILHLYEPSFQAFQSALRDKDKCSIVANYGLNPYLGKYYETTCAQCRTPMKGSACETCGSSKVVKGVSERLTELATASENNGKQRPPYVHQIPLEFIPKVGKRTLARLREAFGTDMDILHQATFEQLCDVIPNHIAEAIVIAREGKATIKRGGGGHYGKMIGTE”, which “soluble on expression in E. coli” value is on record?
Answer: not soluble

Question: For “MCLICDRIKMIKINQNKFFVKELKTGYVVLGDNQHFKGYTLFLYKEHENELYQLEPNEKLNFLEEMSLVGEAVSKAFECEKMNYELLGNGDSHLHWHLFPRISGDLGEYGYYGKGPVWWYPREKMYSTDNEPTDEELEKLKQRLNVELDRLFYEKLEHHHHHH”, which “soluble on expression in E. coli” value is on record?
Answer: not soluble

Question: With “MGSDKIHHHHHHMERKTDSIDLAPLFHPDTIRLSRLAERLDDGPYHGGRIDPLALVITQREEATGQAGIDRYPMLQLAVGRAGMQVGQVDLGQLHPPVRSYLECRFHILKIVNLRHISIISRRNNSPEITLSHPKRQSPHALPYLCINIKKQHIMIRYKKYQNKNEKNVTTFNKWYARAVCEETVDIAALAEHMSTHNTPFSTGAIHGMLKDMVNCIKELLMDGKNVKIDDLGIFSVGIRSKGAVTPEDFSTQGNIIGVRLRARATGNLSSASLKLTAKLREYTEYSNGEVTPGGGGGDSESPDEI” as the sequence, how does the “soluble on expression in E. coli” value read?
Answer: not soluble

Question: With “MGETAGREHGTVTRSAEYIGSFPVDDSCLDDQIQQLHTQLKSLKNCKSKRTVSLRFSVKGVKVYDEDETTLLMAHAMCRVSLSTARPSDAQFAFASHNPGNSDAQLYCHLFRARHARAAQFLNLLLCRCFQLYFLEKHPEEAQEECSGKKPSRAPSLLNQGFPLSVSALVSFRRAPTQGLLPGAKLFSQQSTEQVSSPEEGPTSSPTIVRKMAIRTKELRSGAYRSFTFTPLKQRHLQDKLSAPQGGMSVHRTLSRLKEFLRKGTSHCKGMHVSSSQFGRNRRSTGSSCVVLGWRV” as the sequence, how does the “soluble on expression in E. coli” value read?
Answer: not soluble

Question: For “MGSDKIHHHHHHMAGIRAKQKEKTRQALINAAMNQLSAENGFSSLSLREVAREAGIAPTSFYRHFRDMDELGLTLVDECGLALRQLLRQARQRIESGGSIIRVSIETFMQFVANNTATFRLLLQERSGRSRSFRLAVVREIDHFKAELEDYLVNEQSFSRELAELQSDTIAKIVFSAGADCFDVDEEEREIITEKTILQVRLVARGAEATRRLLKRES”, which “soluble on expression in E. coli” value is on record?
Answer: not soluble

Question: With “SNAMKQAIGFIDSGVGGLTVVREVLKQLPHEQVYYLGDTARCPYGPRDKEEVAKFTWEMTNFLVDRGIKMLVIACNTATAAALYDIREKLDIPVIGVIQPGSRAALKATRNNKIGVLGTLGTVESMAYPTALKGLNRRVEVDSLACPKFVSVVESGEYKSAIAKKVVAESLLPLKSTKIDTVILGCTHYPLLKPIIENFMGDGVAVINSGEETASEVSALLDYHNLLDATDEEIEHRFFTTGSTQIFKDIAKDWLNMPDMTVEHIKLGK” as the sequence, how does the “soluble on expression in E. coli” value read?
Answer: soluble

Question: With “MMSTSDRSRLPLVYACSGCSSVAQLANAFAVRLDRSGQAEMSCISGVGGRVPALTRIAQSGRPILAIDGCQLACVKACLEGVGVVASRHLVLNRIGATKRQHGECTEAEEAATWQSIKLALSEILPVSESVVSN” as the sequence, how does the “soluble on expression in E. coli” value read?
Answer: soluble

Question: Which “soluble on expression in E. coli” value does the source give for “MSLEYKQASIFDNEVKKNKPLADRMRPKTLDEFVGQEHLLGKGKLLRELIEKDNITSMILWGPPGVGKTTLAMIIANMTNSKFITFSAVLSGIKEIKEIMAKAELDAMYGTRTVVFIDEIHRFNKAQQDAFLPHVEKGNIILIGATTENPSFEVNSALLSRSKVFVMKPLTEEDLLILLKRALKDEQNGFGMYKIGITDEQLKKIALFANGDARVALNTLEIAVMGAKVIEGERIVTDDILADAMQKKTLLYDKQGEEHYNLISAFHKSLRNSDWDAAVYWLARMLEAGEDPLYIARRMIRFASEDIGLADPQALEMAVAAYNACHYIGIPECSVNLAQVAIYLALAPKSNAVYMAYNKAKKDAEETIAESVPIHLRNAPTKLMKELGYGKGYKYAHDFEEKVTDMQCLPDNLKDRKYYVPTDSGFEKDIQKRLEQISNLKKKGEGHHHHHH” here?
Answer: soluble

Question: Which “soluble on expression in E. coli” value does the source give for “MGSDKIHHHHHHMIKLSYLTSYITCPRLCYFRVHVGEKRFTELTAVREIYLSLKQGFDLDWAKKRAKALHGAFDEEAFRSAANKFIFPQIDCKSVEVDATIKSKSLGLLVSVDEIVECDGELLPLFLGLNPPENGVWFKDMVKAGAAALAGNYSKALIYYGYTGDLRPVEVTFSLKKKVIKLIERVKLIQRGFLPERKESRYCNYCSFSEDCKSRAETFASKFL” here?
Answer: not soluble

Question: With “GEFGDEDLEELCPVCGDKVSGYHYGLLTCESCKGFFKRTVQNNKRYTCIENQNCQIDKTQRKRCPYCRFQKCLSVGMKLEAVRADRMRGGRNKFGPMYKRDRALKQQKKALIR” as the sequence, how does the “soluble on expression in E. coli” value read?
Answer: soluble

Question: For “MAHHHHHHMSTIYNAVDASTLNDRCRTDLLDTVAQLGRHCETLPKKAVTTADAPLPSCTFNTTVSRSQKEINCSNEAALDKYIEEKGATRWRTTQALASTYFKDHKPKFHGALRTQDCFRDTRDITQLSSKEKDFVHRYAEAKMKKSIPREESDDVAKKVATEAYTEAFRKFKGRDPTEKELLEVERLYFAYADDGAVGVVQKPHFHGPHMHVSICNRKYVTCPNQVYRASLPAVRNARSRFPGPIPVWTSTKNLHAVVSNDTYRPGVHNVSKFGETSSK”, which “soluble on expression in E. coli” value is on record?
Answer: not soluble

Question: Which “soluble on expression in E. coli” value does the source give for “MHHHHHHSSGVDLGTENLYFQSMSVGFIGAGQLAFALAKGFTAAGVLAAHKIMASSPDMDLATVSALRKMGVKLTPHNKETVQHSDVLFLAVKPHIIPFILDEIGADIEDRHIVVSCAAGVTISSIEKKLSAFRPAPRVIRCMTNTPVVVREGATVYATGTHAQVEDGRLMEQLLSSVGFCTEVEEDLIDAVTGLSGSGPAYAFTALDALADGGVKMGLPRRLAVRLGAQALLGAAKMLLHSEQHPGQLKDNVSSPGGATIHALHVLESGGFRSLLINAVEASCIRTRELQSMADQEQVSPAAIKKTILDKVKLDSPAGTAL” here?
Answer: soluble

Question: With “SGAVTDDEVIRKRLLIDGDGAGDDRRINLLVKSFIKWCNSGSQEEGYSQYQRMLSTLSQCEFSMGKTLLVYDMNLREMENYEKIYKEIECSIAGAHEKIAECKKQILQAKRIRKNRQEYDALAKVIQHHPDRHETLKELEALGKELEHLSHIKESVEDKLELRRKQFHVLLSTIHELQQTLENDEKLSEVEEAQEASMETDPKP” as the sequence, how does the “soluble on expression in E. coli” value read?
Answer: soluble

Question: Which “soluble on expression in E. coli” value does the source give for “MQDRNFDDIAEKFSRNIYGTTKGQLRQAILWQDLDRVLEEIGGRKLRVLDAGGGEGQTAIKMAERGHQVTLCDLSGEMIARARQAAEAKGVSKDMHFIQCPAQDVASHLESPVDLILFHAVLEWVADPVGVLETLWSVLRPGGALSLMFYNANGLLMHNMVAGNFDYVQAGMPKRKKRTLSPDYPRDPAQVYQWLEAIGWQITGKTGVRVFHDYLREKHQQRDCYETLVELETRYCRQEPYISLGRYIHVTAIKSPALAADARITYE” here?
Answer: not soluble

Question: With “MGKGDPNKPRGKMSSYAFFVQTCREEHKKKHPDSSVNFAEFSKKCSERWKTMSAKEKSKFEDLAKSDKARYDREMKNYVPPKGDKKGKKKDPNAPKRPPSAFFLFCSEHRPKIKSEHPGLSIGDTAKKLGEMWSEQSAKDKQPYEQKAAKLKEKYEKDIAAYRAKGKSEVGKKGPGRPTGSKKKNEPEDEEEEEEEEDDEDEEEEDEDEE” as the sequence, how does the “soluble on expression in E. coli” value read?
Answer: soluble
